Laboratory results as given in article PMC12804927.

Target: T1, GFP-UTP15 IDR (UniProt Q8C7V3 314-528)
T1 sequence: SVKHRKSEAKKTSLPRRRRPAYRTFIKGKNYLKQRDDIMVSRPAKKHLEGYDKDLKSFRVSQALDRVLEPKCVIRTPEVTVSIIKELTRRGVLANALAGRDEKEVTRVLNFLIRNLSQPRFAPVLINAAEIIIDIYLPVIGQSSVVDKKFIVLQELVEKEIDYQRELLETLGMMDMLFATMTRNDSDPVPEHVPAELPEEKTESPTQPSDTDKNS
Assay: EMSA

B1: 5'ETS RNA probe (ssRNA)
RNA: UCGUGUCUCGCUUGACCAUGUUCCCAGAGUCGGUGGAUGU
- binding result: binds
